Read-outs that look alike come from different tables or passages of the source.
Columns and labels:
[1] = target: mCherry-RAB11A (UniProt P62491); experiment: FRET or BRET
[2] = target: mCherry-RAB11A (UniProt P62491); experiment: FRET or BRET; remark: listed apart in the source

Sequence of UniProt P62491 (P62491 whole entry): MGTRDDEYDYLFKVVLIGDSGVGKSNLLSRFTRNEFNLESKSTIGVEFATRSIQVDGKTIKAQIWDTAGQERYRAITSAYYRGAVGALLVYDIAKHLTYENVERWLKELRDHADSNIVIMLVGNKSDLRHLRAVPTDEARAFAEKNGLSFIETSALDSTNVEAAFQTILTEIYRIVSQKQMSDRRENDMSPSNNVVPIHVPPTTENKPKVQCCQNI

mean YFP fluorescence lifetime (FLIM) [1]: 2.45 ns
mean YFP fluorescence lifetime (FLIM) [2]: 2.19 ns
Substance: KIF13A-YFP fusion protein (natural protein)

From paper PMC3928541
